This test addresses human SSTR2 (isoform A, UniProtKB P30874) (human) (UniProt P30874). Kind of test: flow cytometry, BON-1 cells, same staining conditions (FIG. 10B). For orientation: In flow cytometry, cells or beads pass a laser one at a time.

human SSTR2, sequence (P30874 whole entry, canonical isoform): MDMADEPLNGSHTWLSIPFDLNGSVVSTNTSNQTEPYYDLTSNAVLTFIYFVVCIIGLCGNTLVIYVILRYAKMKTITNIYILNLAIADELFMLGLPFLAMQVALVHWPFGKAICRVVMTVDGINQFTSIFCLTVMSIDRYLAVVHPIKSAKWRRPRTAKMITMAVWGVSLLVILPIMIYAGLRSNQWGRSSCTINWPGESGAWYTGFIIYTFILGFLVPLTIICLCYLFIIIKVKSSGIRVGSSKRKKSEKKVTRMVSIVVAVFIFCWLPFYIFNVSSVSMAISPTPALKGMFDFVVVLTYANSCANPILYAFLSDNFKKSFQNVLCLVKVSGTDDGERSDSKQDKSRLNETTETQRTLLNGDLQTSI

“commercial anti-SSTR2 mAb (R&D Systems, Catalog# MAB4224) (antibody)” showed a surface binding percentage of 38%.

For the origin of these results see patent US20210340264A1.
